24 sequences from the DeepSol protein solubility set can be followed below.

The data set in a line: soluble on expression in E. coli; label from the status in PepcDB or PDB records.
For “VGKEKREIELFVSDPELEAEVKAASEGKMKAAIKTEEKKAREAAIEEVKEEILESYKAKELENEAEILGEVAHILEMIEKDEMRRLISQDKIRPDGRKVNEIRP”, the “soluble on expression in E. coli” value is “not soluble”. To “VKKIGILVLITALLAGIIPKSALAEEPKFNYVDAFAKSILFYEANWCGPDAGNNRIKWRGPCHIEDGKDVGLDLTGGFHDCGDHVKFGLPQCASASTLAWAYHEFSDVFIEKGQDEYMLNILKHFCDYFMKCYPEKNKFYYQVGDGDVDHQYWGPPELQSYDRPTYYVATPENPGSDVAGDTAAALALMYLNYKDRDLEYAEKCLAYAKDIYEFGMTYRGNSKGQSYYLPRDYLDELMWGSLWLYVATGEQKYMDNLEKLMVEKRIGDEAGNSFNDNWTQCWDYVLTGVFIKLATLTDKPLYKQIAEDHLDYWQNRIKSTPGGLKYLDSWGVCKYPAAESMVQLVYYKYTGDKRCLDFAKSQIDYILGDNPKKMSYVVGFGDNYPKFPHHRAASGRLEGPPADETKNDPQRHILYGALVGGADINDEYYDDIDKYVYSETGLDYNAGLVGALAGMSKYFGQGQMPEDTPGIEGEPPVYYADAKIYEENESGITVDLNMYNIVTSPPQYESDLSCRYFVDLSEYAGENIDMSKFVTKVYYSPAGATISELKPYDKEKNIYYVEISFPNPVYARTYVQFCIYYYENKLWDSSNDFSYQGIGDTYKTLENIPIYKNGVLVAGKEPSGAGPVEPTPPPKNYVYGDVNGDGKVNSTDCSIVKRYLLKNIEDFPYEYGKEAGDVNGDGKVNSTDYSLLKRFVLRNIDKFPVEQ” belongs “not soluble”; to “VKLDDHTYQINGRVLLDDLNKKFGIEFEDSEDIDTIGGWLQSQNTNLQKDDFVDTEYDRWTITEIDNHQIIWVNLNYEFNSGRPSVNEEQEDDERD”, “not soluble”. For the sequence VKVNPSVKPICDKCRLIRRHGRVMVICSDPRHKQRQG, the “soluble on expression in E. coli” value is given as “not soluble”. The value for “VLHQPPAMSSALGTTIRLTCTLRNDHDIGVYSVYWYQQRPGHPPRFLLRYFSQSDKSQGPQVPPRFSGSKDVARNRGYLSISELQPEDEAMYYCAMGARSTHVFGSGTQLTVLSAA” was “soluble”. To “VLQTRNYTCGPAALATVLQRLGVNTTEDELAGLAGTTEEGTTMQGLLEASRAKGMNATGMKLNISELKENMIAYTINDGTGHYTVINEITNDTIKLADPSLGNIEMNIEEFAEIYSGYTLVI” belongs “soluble”; to “VMPFTEHDKIILRSYEAVVDGIASLIGPFCEIVLHSLEDLNTSAIKIANGENTGRQVGSPITDLALKMLKDIEGSERNFSRSYFTRAKGGVLMKSITVAIRNGENRVIGLLCINVNLDAPFSQVLQSFMPTQEAKEAA”, “soluble”. The value for “VMRLVTLRSHDQYNTTIYAMDDRYRGVFGRRDVLFMNEQDMAAQGLEHGDRVDIHTALPGSALTLEDITVVAYGIAPGTVGAYYPEANVLVPLNYLDEESGTPSYKSVPVRLTLRSKEIRPLVGGR” was “not soluble”. As to “VNEVLAKNLSLLKEYQPETYLKLDRYIKGEYVPKDNSVEKILLARQDDLIINILVKCSDKDFLLCDHENPINEAYAWIDKYIDPSNKADIVFGMGLAFHLEVLLTSFPNKKVIVIEPNINLFYQIACIRNLEPVIKKAEIIVDEDLDVILERINSLFWDTEKGGIQVQPLEVYGEMFPEMWDKLRDSFIKLANNFTVDIATRRKFGELWVHNNIKNLNKICEASNAGVLVGKFKGIPGILVSAGPSLEKNIHLLKGLEDKCVIMAAGTAVRIMEDFGLAPHFMVGIDAGAKEGEIHSNVKNKDIYFIYSNQVSTYSVDGYKGPKFVMNYPIDMYTAGFFEYAGIKSDFFLSGPSVANTCFDILFKMGCDPIIIIGQDMAFTYGSMYAGEVPGTVVDGAGEAKRRGYVLAKDIYGNEVYTTRPFLAMRNWFEGYFEKVRDKTTIINATEGGLNISYARNETLEAALKSCNLSESGIKDHIRSLHEEGKFADTVASKIEEYRAYVQREIRRLEQLSKRQLETAEDLKRDVYHPSKSRSRFIKAVNSINEMSDRVLQSPIYNSLLKNLVEIDFYIIKAEVDRLVKILTKYDDIKNVYVNAILSQNQKLNASLGKIKKFFDESDVTA”, the “soluble on expression in E. coli” value is “soluble”.

Consider “VRSVQEHQRVVAEMMRACRPITVPLTQAQGLVLGGDVVAPLSLPVFDNSAMDGYAVRAEDTSGATPQNPVMLPVAEDIPAGRADMLTLQPVTAHRIMTGAPVPTGATAIVPVEATDGGVDSVAIRQQATPGKHIRRSGEDVAAGTTVLHNGQIVTPAVLGLAAALGLAELPVLPRQRVLVISTGSELASPGTPLQPGQIYESNSIMLAAAVRDAGAAVVATATAGDDVAQFGAILDRYAVDADLIITSGGVSAGAYEVVKDAFGSADYRGGDHGVEFVKVAMQPGMPQGVGRVAGTPIVTLPGNPVSALVSFEVFIRPPLRMAMGLPDPYRPHRSAVLTASLTSPRGKRQFRRAILDHQAGTVISYGPPASHHLRWLASANGLLDIPEDVVEVAAGTQLQVWDLT”, for which the “soluble on expression in E. coli” value is “not soluble”.

For the sequence “VSRSRKEEERQEQSARLLSKLRRFDDLDRNWPIKILIQGLRFPIRSEQRLTEYFGCSNSYEISLRDIMNFLITDYEKIPLDLYEVCPAYKQKQIGRKTYSAIVNHLSEQGLGSTFRCEWNMRLKKLIRFMEKGWEYIPDSFRQYEYRA”, the “soluble on expression in E. coli” value is listed as “soluble”. To “VTAEEHVESEPLTKRDFEALARFRFGIRRYVRFSEDTVRDHGLTPQHYQLLLALKGFPGREWATMRELADRLQLRHHSVVELVDRAQKQGLVERAPHPSDARAVRVELTEHGQLILARLSAMHRDELLRLGPALELPIWDDPPQDR” belongs “not soluble”. Take “VTAHSIARRFGAPIETLARAADRIGEGDFDVTLPMTNVAEVGQLTRRFGLMAEALRQYRKTSVEEVLSGERRLQAVLDSIDDGLVIFDNQGRIEHANPVAIRQLFVSNDPHGKRIDEILSDVDVQEAVEKALLGEVQDEAMPDLVVDVAGESRLLAWSLYPVTHPGGHSVGAVLVVRDVTEQRAFERVRSEFVLRASHELRTPVTGMQMAFSLLRERLDFPAESREADLIQTVDEEMSRLVLLINDLLNFSRYQTGMQKLELASCDLVDLLTQAQQRFIPKGEARRVSLQLELGDELPRLQLDRLQIERVIDNLLENALRHSSEGGQIHLQARRQGDRVLIAVEDNGEGIPFSQQGRIFEPFVQVGRKKGGAGLGLALCKEIIQLHGGRIAVRSQPGQGARFYMLLP”: the “soluble on expression in E. coli” value is “not soluble”. As to “VTALDWRSALTADEQRSVRALVTATTAVDGVAPVGEQVLRELGQQRTEHLLVAGSRPGGPIIGYLNLSPPRGAGGAMAELVVHPQSRRRGIGTAMARAALAKTAGRNQFWAHGTLDPARATASALGLVGVRELIQMRRPLRDIPEPTIPDGVVIRTYAGTSDDAELLRVNNAAFAGHPEQGGWTAVQLAERRGEAWFDPDGLILAFGDSPRERPGRLLGFHWTKVHPDHPGLGEVYVLGVDPAAQRRGLGQMLTSIGIVSLARRLGGRKTLDPAVEPAVLLYVESDNVAAVRTYQSLGFTTYSVDTAYALAGTDN”, the “soluble on expression in E. coli” value is listed as “not soluble”. As to “VTLLEQNPRWRLVPRGQAVNLRCILKNSQYPWMSWYQQDLQKQLQWLFTLRSPGDKEVKSLPGADYLATRVTDTELRLQVANMSQGRTLYCTCSAAPDWGASAETLYFGSGTRLTVL”, the “soluble on expression in E. coli” value is listed as “soluble”.

With “VTLNTIALELVPPNLEGGKERAIEDARKVVQYSAASGLDGRIRHVMMPGMIAEDDDRPIPMQPKLDVLDFWSIIKPELAGVHGLCTQVTAFMDEPSLHRRLVDLSDAGMEGIVFVGVPRTMQDGEGSGVAPTDALSLYRQLVANRGVIVIPTRDGEQGRLNFKCSRGATYGMTQLLYSDAIVGFLREFARTTEHRPEILLSFGFVPKVETRIGLINWLIQDPGNAAVADEQAFVQKLAGSEPARRRRLMVDLYKRVLDGVADLGFPLSIHLEATYGVSAAAFETFAEMLAYWSPAEPGKPD”, the “soluble on expression in E. coli” value was “not soluble”. Turning to “VVNKKIAYLGDEKPITIWTSLDNVTVIQLEKDETISYITTGFNKGWSIVPNSNHIFIQPKSVKSNLMFEKEAVNFALMTRDYQEFLKTKKLIVDAPDPKELEEQKKALEKEKEAKEQAQKAQKDKREKRKEERAKNRANLENLTNAMSNPQNLSNNKNLSEFIKQQRENELDQMERLEDMQEQAQANALKQIEELNKKQAEETIKQRAKDKINIKTDKPQKSPEDNSIELSPSDSAWRTNLVVRTNKALYQFILRIAQKDNFASAYLTVKLEYPQRHEVSSVIEEELKKREEAKRQKELIKQENLNTTAYINRVMMASNEQIINKEKIREEKQKIILDQAKALETQYVHNALKRNPVPRNYNYYQAPEKRSKHIMPSEIFDDGTFTYFGFKNITLQPAIFVVQPDGKLSMTDAAIDPNMTNSGLRWYRVNEIAEKFKLIKDKALVTVINKG”, the “soluble on expression in E. coli” value was “not soluble”. To “WYKDRGVYHWLSSGQEGTDIPYLGSSVFCSELYEKQMELIRLQHQKLHETEAKLDARVTYMNQWVHQVKTPLSVINLIIQEEDEPVFEQIKKEVRQIEFGLETLLYSSRLDLFERDFKIEAVSLSELLQSVIQSYKRFFIQYRVYPKMNVCDDHQIYTDAKWLKFAIGQVVTNAVKYSAGKSDRLELNVFCDEDRTVLEVKDYGVGIPSQDIKRVFDPYYTGENGRRFQESTGIGLHLVKEITDKLNHTVDISSSPGEGTSVRFSFLTK” belongs “not soluble”; to “YDRRVHRFRKNWERIIPTHSKIQYAGNMGLLSFGTGWDYGKRNQWETDLLLGFIPKYSSKKAKVTMTLKQNYMPWSINLGKGFSTEPLSCGLYLNTVFGNQFWVSEPERYPKGYYGFSSKVRIHVFMGQRLTYDIDPNRRFLAKSVTFFYEISTCDLYLISGVTNSYLRPRDYLSLSFGLKFQWL”, “not soluble”. To “YFSAICQARKNVYIETPYFIPDESLLKAIKSAALSGVDVRIIFPKIADHKIVNIASYSYFEEILRAGGKVYLYNKGFIHSKVVIIDDKIASAGTANMDLRSFMLNFEVNAFIYDEEVIRVMTDDFFEDLSYCEELNLEVFKNRNIIQKIKESVARLFSPIL” belongs “soluble”; to “YIWIEHRTIHQHVDESQSSLHHTEKQIQTFITQHNNSFQELDLTNHHDVTATKRELLKLIHQQPATLYYELSGPNQFITNNYEHLNTKNMYLFSTHQLKFNNSTYMLKIYMANTPRLSEIKKDSRQFALIVDQYDNILYANDDRFTIGEKYRPQQFGFMNESVKLNHADHRLIIYKDIHENIED”, “not soluble”.

“YMYKKYDILKGDKSERVLDRRFITNLCMNGVPMGLQYSITAIGSTILQAAVNTLGSTYVAAMTAGSKMFNFTCCPFDALGSTMATYAGQNVGAAKIKRLGQGVR”: the “soluble on expression in E. coli” value is listed as “not soluble”. To “YNVLENEELRFQLTIQKEQIEFQRNKYEQLGAAYKNIRSFMHDTKKHLFYIENCVTEKKYDDIIPYSKEIMHDLESRYCTINTGNLVIDAFVSNLLLQTKAQGITLHTNLKFDKATIPVNDYHLTIILGNLLDNALNACRGQIGANIKVAVRTVDGTFTIHVANTYVIADPDKAPDDFEKIDFIHGYGLKNVKDSAEACGGFCVIHHENDVYSATVIIPILNP” belongs “not soluble”; to “YRQSQSRAARLRLLVDTGQELIQLPPEAMRKCVLQRACAFVAMDHGLLLEWGADNGVQTTARHGSKERLSTLETTADPLAIGPQWLERPGTHLPCVLLLPLRGADEGSFGTLVLANSVAISAPDGEDIESLQLLATLLAAHLENNRLLEALVARDRT”, “soluble”.
